Source: article PMC11514443 (Structure (London, England : 1993), 2019)

System: A/Udorn/72 (H3N2) influenza virus
Format: cell-based, A/Udorn/72 (H3N2) influenza virus; human HEK293T cells

B1: WT MORC3 (protein, UniProt Q14149 1-939, looked up)
MORC family CW-type zinc …: MAAQPPRGIRLSALCPKFLHTNSTSHTWPFSAVAELIDNAYDPDVNAKQIWIDKTVINDHICLTFTDNGNGMTSDKLHKMLSFGFSDKVTMNGHVPVGLYGNGFKSGSMRLGKDAIVFTKNGESMSVGLLSQTYLEVIKAEHVVVPIVAFNKHRQMINLAESKASLAAILEHSLFSTEQKLLAELDAIIGKKGTRIIIWNLRSYKNATEFDFEKDKYDIRIPEDLDEITGKKGYKKQERMDQIAPESDYSLRAYCSILYLKPRMQIILRGQKVKTQLVSKSLAYIERDVYRPKFLSKTVRITFGFNCRNKDHYGIMMYHRNRLIKAYEKVGCQLRANNMGVGVVGIIECNFLKPTHNKQDFDYTNEYRLTITALGEKLNDYWNEMKVKKNTEYPLNLPVEDIQKRPDQTWVQCDACLKWRKLPDGMDQLPEKWYCSNNPDPQFRNCEVPEEPEDEDLVHPTYEKTYKKTNKEKFRIRQPEMIPRINAELLFRPTALSTPSFSSPKESVPRRHLSEGTNSYATRLLNNHQVPPQSEPESNSLKRRLSTRSSILNAKNRRLSSQFENSVYKGDDDDEDVIILEENSTPKPAVDHDIDMKSEQSHVEQGGVQVEFVGDSEPCGQTGSTSTSSSRCDQGNTAATQTEVPSLVVKKEETVEDEIDVRNDAVILPSCVEAEAKIHETQETTDKSADDAGCQLQELRNQLLLVTEEKENYKRQCHMFTDQIKVLQQRILEMNDKYVKKETCHQSTETDAVFLLESINGKSESPDHMVSQYQQALEEIERLKKQCSALQHVKAECSQCSNNESKSEMDEMAVQLDDVFRQLDKCSIERDQYKSEVELLEMEKSQIRSQCEELKTEVEQLKSTNQQTATDVSTSSNIEESVNHMDGESLKLRSLRVNVGQLLAMIVPDLDLQQVNYDVDVVDEILGQVVEQMSEISST
  viral infectivity: slight increase in viral infectivity
